The test addresses T1, circulating APOL1 in normal human serum (human, UniProt O14791 28-398).
T1 construct: mature; Serum of healthy volunteers; lipoprotein-associated; also called serum APOL1; HDL APOL1
T1 sequence (looked up): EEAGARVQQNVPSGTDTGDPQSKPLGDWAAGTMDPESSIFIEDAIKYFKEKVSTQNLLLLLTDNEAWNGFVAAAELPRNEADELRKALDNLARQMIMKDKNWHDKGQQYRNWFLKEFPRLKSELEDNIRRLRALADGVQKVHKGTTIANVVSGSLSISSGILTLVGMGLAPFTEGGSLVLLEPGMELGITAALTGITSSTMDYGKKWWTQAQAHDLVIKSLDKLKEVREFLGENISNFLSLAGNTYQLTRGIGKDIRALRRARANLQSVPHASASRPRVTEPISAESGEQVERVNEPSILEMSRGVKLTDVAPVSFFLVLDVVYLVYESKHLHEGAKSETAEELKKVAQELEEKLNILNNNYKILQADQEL
Nature of the test: immunoprecipitation from normal human serum with Dynabead-conjugated antibody. As for the experimental part: FIGS. 17A-17C show immunoprecipitation of APOL1 from NHS with a different set of APOL1 antibodies. FIG. 17A show as in FIG. 5D that all the blocking antibodies could immunoprecipitate APOL1, except the conformational antibody 3.7F5 (SEQ ID NOS: 203-212), which is also a poor blocker.
Anti-APOL1 antibodies were conjugated to Dynabeads (ThermoFisher 14311D) as per the manufacturer's protocol. Briefly, 10 μg of each antibody was conjugated to 2 mg of Dynabeads overnight at 37° C. with rotation. Next day, unbound antibody was washed off and conjugated antibody was resuspended at a final concentration of 50 μg/ml. 2-5 μg of the conjugated antibody was incubated with 1 μl of undiluted human serum at 4° C. for 16 h in a total volume of 500 μl with PBS. Unbound serum was washed with 150 mM NaCl in PBS. Bound APOL1 was eluted with low pH glycine buffer (this was preferable to direct boiling to avoid elution of non-specifically bound proteins). Eluates were boiled in 5× sample buffer (Invitrogen 39000) and loaded on 4-12% Bis-Tris gels (Invitrogen NP03220). Immunoprecipitated APOL1 was detected by rabbit polyclonal APOL1 antibody (Proteintech 11486-2-AP, 1:1000) and ECL. APOA1 was detected with goat anti-APOA1 (Rockland 600-101-109), HPR was detected with 1 μg/ml rabbit anti-HPR (Millipore ABS 196) and ECL Prime. […]

B1: antibody 3.7F5 (antibody, V domains shown)
VH: EIHLQQSGPEVVQPGASLKVSCKASDYSFTDYNVFWVKQSHGKSLEWIAYIDPYNGATSYNQKFKDKATLTVDKSSSTAFMYLNSLTSEDSAVYYCARGTVRAFFDSWGQGTTLTVSS
VL: DIVMSQSPSSLVVSVGEKVSLSCKSSQSLLYRNDQINYLAWYQQKPGQSPKLLIFWASTRESGVPVRFTGSGSGTDFTLNINTVKAEDLAVYYCQQYYSYPPTFGTGTKLEIKR
notes: Mouse mAb, cloned as murine IgG2a LALAPG; also called conformational antibody 3.7F5
Turning to B1, the binding result is on record as “no binding”.

The record behind these values is patent US20230071609A1 (Genentech, published 2023).
